Source: patent US20240132548A1 (Janssen / Centocor, published 2024)
Numbering of substitutions follows the chain as printed.

Assays:
Assay in all cases: BLI (Octet), biotinylated mAb on streptavidin sensors, culture supernatant
[1] = target: T1, RSV180917 (I152M + K226M + D486N + S215P + L203I + P101Q + D489Y + T357R + N371Y) (respiratory syncytial virus, subgroup B …, UniProt O36634 26-109)
T1 construct: also called RSV181917
T1 chain 1: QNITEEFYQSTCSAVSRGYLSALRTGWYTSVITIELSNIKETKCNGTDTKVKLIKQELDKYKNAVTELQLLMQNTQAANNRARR
T1 chain 2: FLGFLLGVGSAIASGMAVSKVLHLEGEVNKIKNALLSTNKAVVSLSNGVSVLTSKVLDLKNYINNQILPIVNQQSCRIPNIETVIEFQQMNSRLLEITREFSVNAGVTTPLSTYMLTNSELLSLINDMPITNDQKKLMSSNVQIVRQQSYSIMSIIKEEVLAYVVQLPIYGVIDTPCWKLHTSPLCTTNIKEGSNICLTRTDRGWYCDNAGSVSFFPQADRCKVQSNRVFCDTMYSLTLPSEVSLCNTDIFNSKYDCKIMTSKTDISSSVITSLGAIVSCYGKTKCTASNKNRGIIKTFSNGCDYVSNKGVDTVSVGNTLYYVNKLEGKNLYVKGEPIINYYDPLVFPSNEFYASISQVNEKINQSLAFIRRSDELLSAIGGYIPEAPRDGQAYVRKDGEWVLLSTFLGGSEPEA
Description: (§1) Quantitative Octet (BioLayer Interferometry) was used for measuring protein concentration in the supernatants at day of harvest and after 7 or 30 days storage at 4° C. CR9501 (an antibody specifically recognizing pre-fusion RSV F protein, which comprises the variable regions of the antibodies 58C5 as described in WO2012/006596) and CR9506 (recognizing pre-fusion and post-fusion RSV F protein and comprising a heavy chain variable region comprising SEQ ID NO: 21, and a light chain variable region comprising SEQ ID NO: 22) were biotinylated by standard protocols and immobilized on Streptavidin biosensors (ForteBio, Portsmouth, UK).
(§2) Afterwards, the coated biosensors were blocked in mock cell culture supernatant. A quantitative experiment was performed as follows: temperature 30° C., shaking speed 1000 rpm, time of the assay 300 sec. The concentration of the protein was calculated using a standard curve. The standard curve was prepared for each coated antibody CR9501 and CR9506 using the pre-fusion RSV FA protein (SEQ ID NO: 19; described previously in WO17174568) diluted in mock medium. […] The data analysis was done using the ForteBio Data Analysis 10.0.1.6 software (ForteBio).

[2] = target: T2, RSV181181 (I152M + K226M + D486N + S215P + P101Q + D489Y) (respiratory syncytial virus, subgroup B …, UniProt O36634 26-109; P13843 137-540)
T2 chain 1: T1 chain 1
T2 chain 2: T1 chain 2 with I67L, R221T, Y235N
Description: as §1, §2

[3] = target: T3, RSV190417 (tag-free; I152M + K226M + D486N + S215P + L203I + P101Q + D489Y) (respiratory syncytial virus, subgroup B …, UniProt O36634 26-109; P13843 137-540)
T3 construct: Measured in culture supernatant, furin co-transfected
T3 chain 1: T1 chain 1
T3 chain 2: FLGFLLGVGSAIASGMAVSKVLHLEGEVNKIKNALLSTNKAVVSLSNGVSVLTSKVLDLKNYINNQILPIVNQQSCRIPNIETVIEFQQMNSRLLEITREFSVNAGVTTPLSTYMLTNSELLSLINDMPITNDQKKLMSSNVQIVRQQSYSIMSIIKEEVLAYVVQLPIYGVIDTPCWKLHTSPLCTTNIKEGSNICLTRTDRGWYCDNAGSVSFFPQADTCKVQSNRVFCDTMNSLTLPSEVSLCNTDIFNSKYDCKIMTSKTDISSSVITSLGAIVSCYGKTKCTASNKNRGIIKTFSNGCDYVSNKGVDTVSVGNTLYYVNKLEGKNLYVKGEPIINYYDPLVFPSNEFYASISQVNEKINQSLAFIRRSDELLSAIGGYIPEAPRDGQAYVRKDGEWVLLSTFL
Description: as §1, §2

Measured: binding result

B1: CR9506 (antibody, human IgG1, kappa, V domains shown)
VH: EVQLVQSGAEVKKPGSSVKVSCKASGGTFSRSLITWVRQAPGQGLEWMGEISLVFGSAKNAQKFQGRVTITADESTSTAHMEMISLKHEDTAVYYCAAHQYGSGTHNNFWDESELRFDLWGQGTLVTVSS
VL: DIVMTQSPSSLSASVGDRVTIACRASQSIGTYLNWYQQKPGKAPKLLIYAASSLQSGVPSRFSGSGSGTHFTLAISSLQAEDFATYSCQQSYTIPYTFGQGTKLEIKR
notes: Biotinylated for Octet; coated and also used HRP-labelled as detection antibody in the ELISA
binds: [1] | [2] | [3]
